Results as given in paper PMC7978432.

Key:
[1] = biological target: SARS-CoV-1 RBD-5GS-1TD0 (SARS-CoV-1 | not stated); assay: SDS-PAGE
[2] = biological target: SARS-CoV-2 RBD-5GS-1TD0 (SARS-CoV-2 | not stated) (UniProt P0DTC2); assay: SEC
[3] = biological target: SARS-CoV-2 RBD-5GS-1TD0 (SARS-CoV-2 | not stated) (UniProt P0DTC2); assay: SDS-PAGE

SARS-CoV-1 RBD-5GS-1TD0
stoichiometry N [1]: 3

SARS-CoV-2 RBD-5GS-1TD0 (from UniProt P0DTC2 330-532)
stoichiometry N [2]: 3 | stoichiometry N [3]: 3
